In article PMC3580866 (Biochemistry, 2013):

Key:
SEC = target: the molecule itself; experiment: SEC
[1] = target: full length human SLBP, unphosphorylated, untagged, co-expressed with hSLIP1 in E. coli (human, UniProt Q14493 1-270); experiment: AUC
AUC = target: the molecule itself; experiment: AUC

B1: MIF4Gdb from Danio rerio (zebrafish orthologue of SLIP1) (natural protein, Danio rerio (zebrafish))
chain: ENSSKEDYKIQSFDLETQKLLKTALKDPGSVDLEKVSSVIVDQSLKDQVFSREAGRICYTIVQAEAKQTNGSVFRRNLLNRLQQEFKAREETRKRSTQEWVCLVSFICNIFDYLKVNNMPMVALVHPVYDCLFRLAQSDALKNEEEVDCLVLQLHRIGDQLEKMNVQLMDELFNLLRDGFLLQEDLSSMGRLLLLEILEFRAGGWKLSDTAQKYYYSEVTD
Q: B1 was tested. Which “stoichiometry N” value (SEC) did it give?
A: 2

B2: human SLIP1, wild type, (His)6-tagged, co-expressed with hSLBP from pRSF-Duet (natural protein, UniProt A9UHW6 1-222, looked up)
chain: MGEPSREEYKIQSFDAETQQLLKTALKDPGAVDLEKVANVIVDHSLQDCVFSKEAGRMCYAIIQAESKQAGQSVFRRGLLNRLQQEYQAREQLRARSLQGWVCYVTFICNIFDYLRVNNMPMMALVNPVYDCLFRLAQPDSLSKEEEVDCLVLQLHRVGEQLEKMNGQRMDELFVLIRDGFLLPTGLSSLAQLLLLEIIEFRAAGWKTTPAAHKYYYSEVSD
Q: B2 was tested. Which Kd [1] did it give?
A: < 0.9 nM

B3: R202A human SLIP1, (His)6-tagged, expressed alone from pET28a (natural protein, UniProt A9UHW6 1-222, looked up)
chain: MGEPSREEYKIQSFDAETQQLLKTALKDPGAVDLEKVANVIVDHSLQDCVFSKEAGRMCYAIIQAESKQAGQSVFRRGLLNRLQQEYQAREQLRARSLQGWVCYVTFICNIFDYLRVNNMPMMALVNPVYDCLFRLAQPDSLSKEEEVDCLVLQLHRVGEQLEKMNGQRMDELFVLIRDGFLLPTGLSSLAQLLLLEIIEFAAAGWKTTPAAHKYYYSEVSD
Q: How did the “stoichiometry N” value (AUC) turn out when B3 was run?
A: 2
